Target: Human methylmalonyl-CoA epimerase, wild-type (human) (UniProt Q96PE7)
Experiment: not stated; solution data (Supplemental Fig. S2)

In the case of “Human methylmalonyl-CoA epimerase, wild-type (from UniProt Q96PE7 45-176) (enzyme)”, the stoichiometry N is reported as 2.

Reference: publication PMC6525113
